The values below come from patent publication US10570379B2, “Polypeptides for carbon-carbon bond formation and uses thereof” (INVISTA North America S.à.r.l., priority 2015, dated 2020).

Common to all, as to format: biochemical
Data set [1] in a line: Mutant E324G provided with propionyl-CoA and acetyl-CoA. Conditions: propionyl-CoA + acetyl-CoA. The method, then: (§1) Acetyl-CoA was used at a final concentration of 1.5 mM and 30 mM of the substrate being studied (e.g. carboxylic acid salts, such as sodium acrylate) or 1.5 mM of propionyl-CoA in 50 mM Hepes buffer (pH 7.5). The reaction was started by addition of 0.5 mg/mL of YdiF pure protein or mutants to a final volume of 250 μL and incubated for 1 to 10 hours at 30° C.
(§2) All samples were prepared in triplicate and spun down at 15000 g for 20 min at 4° C. Detection of the thiol product (e.g. acryloyl-CoA) synthesized from CoA-transferase activity and the keto-thiol product (e.g. 3-oxopent-4-enoyl-CoA) due to putative thiolase activity of YdiF (or homologues) was carried out by Liquid Chromatography coupled to a qTof-Mass spectrometry (in positive mode), using a C18 column (Zorbax Eclipse C18, 2.1×50 mm, 1.8μ, Agilent, code product: 959757-902) and a gradient of 10 mM ammonium acetate and acetonitrile as mobile phase.
(§3) Mutations were introduced as described in Example 1 to replace the glutamate in position 324 of YdiF (see Selmer et al., 2002) with glycine (mutant E324G) or leucine (E324L). Activity of the mutant enzymes was studied as described in Example 2.

Data set [2] in a line: Activity of YdiF mutant enzymes (evaluation of potential active sites). Conditions: studied as in Example 2. As for the experimental part: YdiF mutants were prepared using the relevant primers to introduce the mutated bases via the Quick change lightning kit (Agilent, code product: 210518-5), and cloned into E. coli. In addition, all the proteins used in this experiment have the following extra amino acids added in the N-terminal extremity of the original protein sequence (SEQ ID NO:1): […]. Those additional amino acids correspond to: two amino acids (M and G), a 6×His-tag followed by a 3 amino acids linker (SSG), and a specific proteolytic cleavage site (thrombin site, underlined) (SEQ ID NO: 22). All the sequences were confirmed by DNA sequencing.
as §1, §2
Mutations were introduced as described in Example 1 at the following positions previously found to be potentially involved in the active site of other β-ketothiolases: C258A, S60A, C112A, S38A, C390A. Activity of the mutant enzymes was studied as described in Example 2.
as §3

Data set [3] can be described thus: Substrate specificity, 3-butenoate with acetyl-CoA, LC-MS. The note with it: substrate 3-butenoate + acetyl-CoA. As for the experimental part: as §1, §2
(§4) To study the substrate specificity of YdiF, several commercially available substrates were provided to YdiF (and homologues) in combination with acetyl-CoA, as described in Example 2. LC-MS was used to detect the thiol-product synthesized via the transferase activity and the ketothiol-product synthesized via the thiolase activity.

Data set [4] can be described thus: Substrate specificity, propionate with acetyl-CoA, LC-MS. As for the experimental part:
as §1, §2, §4

Data set [5] in a line: Substrate specificity, 2-hexenoate with acetyl-CoA, LC-MS. The note with it: substrate 2-hexenoate + acetyl-CoA. The method, then:
as §1, §2, §4

The nature of data set [6]: Screen for dual transferase/ketothiolase activity with acetyl-CoA and sodium acrylate, LC-MS detection. As for the experimental part: as §1
Two controls were made from similar mixture except that the enzymes were inactivated by heating-up at 95° C. for 20 min or they were replaced by Buffer C.
as §2
YdiF from Clostridium propionicum belongs to the enzymatic class EC2.8.3.8. Other members of this enzyme class with similar structural features to YdiF, as well as proteins with a CoA-transferase activity from close-by enzymatic classes, were screened for dual transferase/ketothiolase activity as described in Example 2. Acetyl-CoA and sodium acrylate were provided as substrates. LC-MS was used to detect the thiol-product (propenoyl-CoA) synthesized via the transferase activity and the ketothiol-product (3-oxopent-4-enoyl-CoA) synthesized via the thiolase activity, as described in Example 2.

Data set [7] is described as follows: Substrate specificity, butyrate with acetyl-CoA, LC-MS. As for the experimental part:
as §1, §2, §4

Data set [8] in a line: Substrate specificity, 4-pentenoate with acetyl-CoA, LC-MS. Conditions: substrate 4-pentenoate + acetyl-CoA. The method, then: as §1, §2, §4
Data set [9] in a line: Substrate specificity, 6-heptenoate with acetyl-CoA, LC-MS. The note with it: substrate 6-heptenoate + acetyl-CoA. As for the experimental part:
as §1, §2, §4

B1: E324G: YdiF mutant, glycine for the glutamate in position 324, SEQ ID NO: 3 (protein)
chain: MGHHHHHHSSGLVPRGSMRKVPIITADEAAKLIKDGDTVTTSGFVGNAIPEALDRAVEKRFLETGEPKNITYVYCGSQGNRDGRGAEHFAHEGLLKRYIAGHWATVPALGKMAMENKMEAYNVSQGALCHLFRDIASHKPGVFTKVGIGTFIDPRNGGGKVNDITKEDIVELVEIKGQEYLFYPAFPIHVALIRGTYADESGNITFEKEVAPLEGTSVCQAVKNSGGIVVVQVERVVKAGTLDPRHVKVPGIYVDYVVVADPEDHQQSLDCEYDPALSGEHRRPEVVGEPLPLSAKKVIGRRGAIELEKDVAVNLGVGAPEYVASVADEEGIVDFMTLTAGSGAIGGVPAGGVRFGASYNADALIDQGYQFDYYDGGGLDLCYLGLAECDEKGNINVSRFGPRIAGCGGFINITQNTPKVFFCGTFTAGGLKVKIEDGKVIIVQEGKQKKFLKAVEQITFNGDVALANKQQVTYITERCVFLLKEDGLHLSEIAPGIDLQTQILDVMDFAPIIDRDANGQIKLMDAALFAEGLMGLKEMKS
With B1, the “keto-thiol product (3-oxopentanoyl-CoA)” value in data set [1] was “presence of the keto-thiol product”. In addition, the transferase activity result in data set [2] is reported as “Abolition of transferase activity”.

B2: Bdigene 237: Acetate/Propionate CoA-transferase (YdiF) from Clostridium propionicum, Uniprot Q9L3F7, SEQ ID NO: 1 (protein, listed as Clostridium propionicum)
chain: MRKVPIITADEAAKLIKDGDTVTTSGFVGNAIPEALDRAVEKRFLETGEPKNITYVYCGSQGNRDGRGAEHFAHEGLLKRYIAGHWATVPALGKMAMENKMEAYNVSQGALCHLFRDIASHKPGVFTKVGIGTFIDPRNGGGKVNDITKEDIVELVEIKGQEYLFYPAFPIHVALIRGTYADESGNITFEKEVAPLEGTSVCQAVKNSGGIVVVQVERVVKAGTLDPRHVKVPGIYVDYVVVADPEDHQQSLDCEYDPALSGEHRRPEVVGEPLPLSAKKVIGRRGAIELEKDVAVNLGVGAPEYVASVADEEGIVDFMTLTAESGAIGGVPAGGVRFGASYNADALIDQGYQFDYYDGGGLDLCYLGLAECDEKGNINVSRFGPRIAGCGGFINITQNTPKVFFCGTFTAGGLKVKIEDGKVIIVQEGKQKKFLKAVEQITFNGDVALANKQQVTYITERCVFLLKEDGLHLSEIAPGIDLQTQILDVMDFAPIIDRDANGQIKLMDAALFAEGLMGLKEMKS
Turning to B2, the ketothiol-product entry in data set [3], in data set [4], in data set [5], in data set [6] (3-oxopent-4-enoyl-CoA via thiolase activity), in data set [7] and in data set [8] was “✓” in each case. Moreover, the ketothiol-product entry in data set [9] is “✓”. In addition, the thiol-product result in data set [3], in [4], in [5], in data set [6] (propenoyl-CoA via transferase activity), in [7] and in data set [8] was “✓” in each case. Besides, the thiol-product entry in [9] is recorded as “✓”.
